Changes are numbered by the printed parent chain. One block for each binder: values may come before it.
Assays:
[1] = target: T1, recombinant soluble human IL-6 receptor (SR344) (human, UniProt P08887 20-344, biotinylated (sites not given) where immobilized via streptavidin or used in phage ELISA); test: SPR Biacore T100, antibody on protein A/G chip, SR344 analyte, 37 C
T1 construct: also called soluble IL-6 receptor; membrane-type IL-6 receptor (when biotinylated and immobilized on the chip)
T1 sequence (looked up): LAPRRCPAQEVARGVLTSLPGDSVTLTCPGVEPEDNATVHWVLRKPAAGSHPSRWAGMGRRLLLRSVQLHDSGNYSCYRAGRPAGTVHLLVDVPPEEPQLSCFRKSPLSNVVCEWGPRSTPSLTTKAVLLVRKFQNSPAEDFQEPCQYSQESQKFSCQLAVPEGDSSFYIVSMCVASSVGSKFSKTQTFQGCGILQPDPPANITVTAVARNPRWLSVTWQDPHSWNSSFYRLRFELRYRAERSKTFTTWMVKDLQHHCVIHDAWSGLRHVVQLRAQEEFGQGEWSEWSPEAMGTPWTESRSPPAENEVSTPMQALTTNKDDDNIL
Protocol: Kinetic analyses of antigen-antibody reactions at pH 5.8 and pH 7.4 were carried out using a Biacore™ T100 surface plasmon resonance system (GE Healthcare) on the four antibodies: humanized PM1 antibody (WT) and H3pI/L73, CLH5/L73, and H170/L82 produced in Examples 2 and 4 (buffer: 10 mM MES (pH 7.4 or pH 5.8), 150 mM NaCl, and 0.05% TWEEN® 20 (polyoxyethelene sorbitan monolaurate)). Various antibodies were bound onto a sensor chip immobilized with recomb-protein A/G (Pierce) by amine coupling. SR344 adjusted to concentrations of 9.8 to 400 nM was injected to the chip as an analyte. […] All the measurements were carried out at 37° C. Association rate constants kₐ (1/Ms) and dissociation rate constants kd (1/s) were calculated using Biacore T100™ Evaluation Software (GE Healthcare), and dissociation constants KD (M) were calculated on the basis of those values (Table 5). Moreover, the ratio of the affinities at pH 5.8 and pH 7.4 were calculated for each clone to evaluate pH-dependent binding. All the measurements were carried out at 37° C.

[2] = target: T1, recombinant soluble human IL-6 receptor …; test: SPR Biacore T100, integrated RU of SR344 bound over ten cycles, 37 C
Protocol: The produced pH-dependent binding clones described above were analyzed using a Biacore T100™ surface plasmon resonance system (GE Healthcare) for their ability to bind to the antigen SR344 multiple times at pH 5.8 and pH 7.4. More specifically, the analysis was carried out as follows. All the measurements were carried out at 37° C. First, the sample antibodies described above were bound onto a recomb-protein A/G (Pierce)-immobilized sensor chip by amine-coupling, where the mobile phase buffer was 10 mM MES (pH 5.8), 150 mM NaCl, and 0.05% TWEEN® 20 (polyoxyethelene sorbitan monolaurate) (step 1). SR344 adjusted to a concentration of about 40 nM was injected as an analyte for 3 minutes at pH 7.4 and allowed to bind (the buffer for injected SR344 was 10 mM MES (pH 7.4), 150 mM NaCl, and 0.05% TWEEN® 20 (polyoxyethelene sorbitan monolaurate)) (step 2). Subsequently, the injection of SR344 was discontinued and a mobile phase of pH 5.8 was allowed to flow for about 70 seconds to expose the antibody/SR344 complex under acidic conditions (step 3). Ten sets of this binding (step 2)/acidity exposure (step 3) process were continuously repeated to observe the sensorgram in real-time, which is shown in FIG. 11. […] In the 10-set repetition of the binding (step 2) and acidic exposure (step 3), almost all H170/L82 and CLH5/L73 antibodies were able to bind to new antigens in each set. […]

[3] = target: T1, recombinant soluble human IL-6 receptor …; test: SPR Biacore T100, biotinylated SR344 on streptavidin chip (model of membrane-type IL-6 receptor), antibody as analyte, bound at pH 7.4, dissociation at pH 5.8, 37 C
Protocol: (§1) Binding to the membrane-type IL-6 receptor was evaluated by evaluating binding to the IL-6 receptor immobilized on a sensor chip. SR344 was biotinylated in accordance with a method known among persons with ordinary skill in the art, and the biotinylated SR344 was immobilized on the sensor chip via streptavidin using the affinity between streptavidin and biotin. All the measurements were carried out at 37° C. The mobile phase buffer was 10 mM MES (pH 5.8), 150 mM NaCl and 0.05% TWEEN® 20 (polyoxyethelene sorbitan monolaurate).
(§2) The pH-dependently-binding clones were injected under the condition of pH 7.4 to allow them to bind to SR344, and then, the pH-dependent dissociation of each clone at the pH of the mobile phase, pH 5.8, was observed. The results are shown in FIG. 21 (results for Fv1-M71, Fv1-M73, Fv3-M71, and Fv3-M73 are shown in FIG. 21, while results for other clones are shown in FIGS. 17 and 19). Analyses were carried out in the same manner as in Example 10 and the pH dependencies of the dissociation rate constants of all of the eleven types of clones are shown in Table 12.

[4] = target: T1, recombinant soluble human IL-6 receptor …; test: SPR Biacore T100, biotinylated SR344 on streptavidin chip (model of membrane-type IL-6 receptor), antibody as analyte, bound at pH 7.4, dissociation at pH 7.4, 37 C
Protocol: as §1, §2

[5] = target: T1, recombinant soluble human IL-6 receptor …; test: SPR Biacore T100, biotinylated SR344 on streptavidin chip (model of membrane-type IL-6 receptor), antibody as analyte, 37 C
Protocol: as §1, §2

- pH-dependent binding (affinity ratio) relative to WT [1]: 15 fold
B1: H3pI/L73 (antibody, IgG1, V domains shown)
VH: QVQLQESGPGLVKPSETLSLTCAVSGHSISHDHAHSWVRQPPGEGLEWIGYISYSGITNYNPSLKGRVTISRDTSKNQFSLKLSSVTAADTAAYYCARSLARTTAMDYWGEGTLVTVSS
VL: DIQMTQSPSSLSASVGDSVTITCQASQHISSHLNWYQQKPGKAPELLIYYGSHLHSGVPSRFSGSGSGTDFTFTISSLEAEDAATYYCGQGNRLPYTFGQGTKVEIE
notes: tested as IgG1; also called H3pI/L73-IgG1; H3pl/L73

- total amount of antigen bound over ten cycles relative to WT [2]: ~4 fold
- pH-dependent binding (affinity ratio) relative to WT [1]: > 15 fold
B2: H170/L82 (antibody, IgG1, V domains shown)
VH: B1 VH with D32H, N59H, S63H, S99V, T103I, Y108H
VL: B1 VL with H28D
notes: expressed and purified as IgG (IgG1); also called H170/L82-IgG1

- koff [3]: 0.0026 s⁻¹
- koff [4]: 0.00047 s⁻¹
- kd (pH 5.8)/kd (pH 7.4) [5]: 5.56
B3: Fv4-IgG1 (antibody)
heavy: not shown
light: DIQMTQSPSSLSASVGDSVTITCQASTDISSHLNWYQQKPGKAPELLIYYGSHLLSGVPSRFSGSGSGTDFTFTISSLEAEDAATYYCGQGNRLPYTFGQGTKVEIERTVAAPSVFIFPPSDEQLKSGTASVVCLLNNFYPREAKVQWKVDNALQSGNSQESVTEQDSKDSTYSLSSTLTLSKADYEKHKVYACEVTHQGLSSPVTKSFNRGEC
notes: VH3-IgG1 / VL3-CK

Source: patent US20180282719A1 (published 2018)
